The results in this text go back to the supplement of paper PMC9112550, “Optimization of the antimicrobial peptide Bac7 by deep mutational scanning” (BMC Biology, 2022).

This series deals with Escherichia coli TOP10. Put plainly: shrunken log2 fold change of peptide-encoding DNA abundance (4.5 h post-induction vs induction); higher = less antimicrobial activity (less host growth inhibition). The settings on record: time post-induction: 4.5 h; library: site-saturation at positions 5, 18, 19, 20.
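Also: peptides expressed intracellularly from a pBAD plasmid library in pooled LB shake-flask culture, induced with 0.3% L-arabinose, DNA abundance read by NGS, three biological replicates, DESeq2 with apeglm shrinkage.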

For RRIRARPPRLPRPRPRPMQPPRP, the “shrunken log2 fold change” value was 0.369. In the case of RRIRDRPPRLPRPRPRPKNIPRP it was -0.465; in that of RRIRCRPPRLPRPRPRPGQKPRP, 0.0902; in that of RRIRVRPPRLPRPRPRPALVPRP, 0.464. As for RRIRLRPPRLPRPRPRPLLWPRP, the figure is 0.195; as for RRIRQRPPRLPRPRPRPFINPRP, -0.241. As for RRIRHRPPRLPRPRPRPVPVPRP, the figure is 0.0601; as for RRIRWRPPRLPRPRPRPDPVPRP, 0.0369. On to RRIRARPPRLPRPRPRPCMKPRP, for which the “shrunken log2 fold change” value is -0.167. RRIRFRPPRLPRPRPRPRKPPRP: the “shrunken log2 fold change” value was determined as 0.428. Consider RRIRNRPPRLPRPRPRPGMPPRP, for which the “shrunken log2 fold change” value is -0.107.

With RRIRIRPPRLPRPRPRPNYCPRP, the “shrunken log2 fold change” value was -0.139. In the case of RRIRIRPPRLPRPRPRPRKGPRP it was 0.05; in that of RRIRPRPPRLPRPRPRPTTNPRP, 0.199; in that of RRIRWRPPRLPRPRPRPGIEPRP, 0.281.

Take RRIRQRPPRLPRPRPRPKEHPRP: the “shrunken log2 fold change” value was -0.117.

Regarding RRIRRRPPRLPRPRPRPFASPRP, the “shrunken log2 fold change” value is -0.0314.

RRIRDRPPRLPRPRPRPLTDPRP: the “shrunken log2 fold change” value amounted to 0.0638.

As to RRIRQRPPRLPRPRPRPMRTPRP, the “shrunken log2 fold change” value is 0.661. In the case of RRIRDRPPRLPRPRPRPFVNPRP it was -0.254; in that of RRIRRRPPRLPRPRPRPMHMPRP, 0.121; in that of RRIRGRPPRLPRPRPRPNPTPRP, 0.602. RRIRQRPPRLPRPRPRPWAIPRP: the “shrunken log2 fold change” value worked out at 0.0485. In the case of RRIRCRPPRLPRPRPRPACMPRP, the “shrunken log2 fold change” value was -0.162. As for RRIRQRPPRLPRPRPRPQGRPRP, the “shrunken log2 fold change” value was -0.0215. As for RRIRKRPPRLPRPRPRPITLPRP, the “shrunken log2 fold change” value was -0.0554.

With RRIRPRPPRLPRPRPRPWGKPRP, the “shrunken log2 fold change” value turned out to be 0.248. In the case of RRIRRRPPRLPRPRPRPYNHPRP it was -0.8. Consider RRIRRRPPRLPRPRPRPTAEPRP, for which the “shrunken log2 fold change” value was -0.0162. In the case of RRIRTRPPRLPRPRPRPMEQPRP it was -0.189. In the case of RRIRPRPPRLPRPRPRPTPTPRP it was 0.483; in that of RRIRSRPPRLPRPRPRPKWTPRP, -0.0493.

Take RRIRQRPPRLPRPRPRPWTHPRP: the “shrunken log2 fold change” value was determined as 0.00902. For RRIRERPPRLPRPRPRPDQNPRP, the “shrunken log2 fold change” value is -0.108.

Take RRIRVRPPRLPRPRPRPYLLPRP: the “shrunken log2 fold change” value was -0.357. For the sequence RRIRNRPPRLPRPRPRPNDVPRP, the “shrunken log2 fold change” value was -0.00503. In the case of RRIRYRPPRLPRPRPRPAAVPRP it was 0.0751; in that of RRIRARPPRLPRPRPRPQGNPRP, -0.144. As for RRIRERPPRLPRPRPRPAYIPRP, the figure is -0.168. In the case of RRIRARPPRLPRPRPRPANCPRP it was 0.186; in that of RRIRIRPPRLPRPRPRPECWPRP, 0.202. As for RRIRRRPPRLPRPRPRPAPPPRP, the “shrunken log2 fold change” value was determined as 0.778. In the case of RRIRGRPPRLPRPRPRPLPWPRP it was 0.702. As for RRIRDRPPRLPRPRPRPQNCPRP, the “shrunken log2 fold change” value was 0.00875.

Consider RRIRDRPPRLPRPRPRPMHLPRP, for which the “shrunken log2 fold change” value was -0.339. As to RRIRPRPPRLPRPRPRPSWRPRP, the “shrunken log2 fold change” value was -0.0524. Turning to RRIRVRPPRLPRPRPRPPTCPRP, the “shrunken log2 fold change” value turned out to be 0.141.

For RRIRIRPPRLPRPRPRPRVKPRP, the “shrunken log2 fold change” value is -0.0816.

For the sequence RRIRERPPRLPRPRPRPCRRPRP, the “shrunken log2 fold change” value came to 0.0646. In the case of RRIRHRPPRLPRPRPRPCVQPRP it was -0.131; in that of RRIRQRPPRLPRPRPRPQDSPRP, -0.297; in that of RRIRERPPRLPRPRPRPDQMPRP, -0.161.

With RRIRARPPRLPRPRPRPTYWPRP, the “shrunken log2 fold change” value was determined as 0.144.

Consider RRIRKRPPRLPRPRPRPTWWPRP, for which the “shrunken log2 fold change” value was 0.0302. Turning to RRIRGRPPRLPRPRPRPRFAPRP, the “shrunken log2 fold change” value is 0.99. As to RRIRYRPPRLPRPRPRPHVDPRP, the “shrunken log2 fold change” value is -0.588. As for RRIRGRPPRLPRPRPRPDYVPRP, the “shrunken log2 fold change” value came out at 0.66. In the case of RRIRMRPPRLPRPRPRPEHEPRP it was 0.0191; in that of RRIRIRPPRLPRPRPRPVCPPRP, -0.0123; in that of RRIRIRPPRLPRPRPRPVDTPRP, -0.282. Consider RRIRSRPPRLPRPRPRPAPLPRP, for which the “shrunken log2 fold change” value was 0.163.

RRIRARPPRLPRPRPRPDFFPRP: the “shrunken log2 fold change” value worked out at 0.307.

In the case of RRIRSRPPRLPRPRPRPDHHPRP, the “shrunken log2 fold change” value is -0.868. As for RRIRCRPPRLPRPRPRPHVHPRP, the figure is -0.245; as for RRIRQRPPRLPRPRPRPEFRPRP, 0.0728; as for RRIRMRPPRLPRPRPRPQIYPRP, -0.464. In the case of RRIRSRPPRLPRPRPRPLYTPRP it was -0.422. On to RRIRIRPPRLPRPRPRPSQNPRP, for which the “shrunken log2 fold change” value was -0.766. As for RRIRKRPPRLPRPRPRPIKIPRP, the figure is -0.149. With RRIRTRPPRLPRPRPRPVIIPRP, the “shrunken log2 fold change” value was -0.213. As to RRIRGRPPRLPRPRPRPYTSPRP, the “shrunken log2 fold change” value was -0.278. Turning to RRIRKRPPRLPRPRPRPIFPPRP, the “shrunken log2 fold change” value was 0.319. In the case of RRIRVRPPRLPRPRPRPRDGPRP it was 1.09; in that of RRIRVRPPRLPRPRPRPCPAPRP, -0.121; in that of RRIRERPPRLPRPRPRPQVDPRP, -0.211.

Take RRIRFRPPRLPRPRPRPNYWPRP: the “shrunken log2 fold change” value was -0.221. For the sequence RRIRKRPPRLPRPRPRPEFTPRP, the “shrunken log2 fold change” value came to 0.738. Consider RRIRERPPRLPRPRPRPYHLPRP, for which the “shrunken log2 fold change” value is -0.0102. As for RRIRLRPPRLPRPRPRPSMNPRP, the figure is -0.345. In the case of RRIRYRPPRLPRPRPRPIECPRP it was 0.00468; in that of RRIRHRPPRLPRPRPRPTFRPRP, 0.0997; in that of RRIRIRPPRLPRPRPRPSSGPRP, -0.219. In the case of RRIRWRPPRLPRPRPRPPCMPRP it was 0.00553; in that of RRIRHRPPRLPRPRPRPYTVPRP, 0.0229. Consider RRIRMRPPRLPRPRPRPTPAPRP, for which the “shrunken log2 fold change” value came to 2.13. As for RRIRDRPPRLPRPRPRPIHAPRP, the figure is 0.125; as for RRIRVRPPRLPRPRPRPLFYPRP, -0.22; as for RRIRHRPPRLPRPRPRPSMSPRP, -0.0246. In the case of RRIRFRPPRLPRPRPRPHFRPRP, the “shrunken log2 fold change” value is -0.634. As for RRIRWRPPRLPRPRPRPMMWPRP, the figure is 0.0342; as for RRIRMRPPRLPRPRPRPGTCPRP, 0.851. In the case of RRIRRRPPRLPRPRPRPKKHPRP it was 0.197; in that of RRIRVRPPRLPRPRPRPKHRPRP, 0.356; in that of RRIRQRPPRLPRPRPRPGRWPRP, 0.446.

With RRIRMRPPRLPRPRPRPWCEPRP, the “shrunken log2 fold change” value was -0.0233.

Turning to RRIRSRPPRLPRPRPRPFVPPRP, the “shrunken log2 fold change” value was -0.27. In the case of RRIRVRPPRLPRPRPRPWVCPRP it was 0.133.

RRIRFRPPRLPRPRPRPYMTPRP: the “shrunken log2 fold change” value is -0.49. As to RRIRIRPPRLPRPRPRPYRDPRP, the “shrunken log2 fold change” value is -0.0075.

With RRIRLRPPRLPRPRPRPEQPPRP, the “shrunken log2 fold change” value came to 0.437. In the case of RRIRVRPPRLPRPRPRPCLQPRP it was -0.421; in that of RRIRCRPPRLPRPRPRPARGPRP, 0.297. As for RRIRARPPRLPRPRPRPYKEPRP, the figure is -0.423; as for RRIRIRPPRLPRPRPRPPIRPRP, -0.0314.

Consider RRIRRRPPRLPRPRPRPHELPRP, for which the “shrunken log2 fold change” value worked out at 0.429. Take RRIRARPPRLPRPRPRPVGYPRP: the “shrunken log2 fold change” value is 0.265. Consider RRIRYRPPRLPRPRPRPYVEPRP, for which the “shrunken log2 fold change” value was -0.00822. In the case of RRIRERPPRLPRPRPRPARYPRP, the “shrunken log2 fold change” value is 0.24. As for RRIRVRPPRLPRPRPRPYLVPRP, the “shrunken log2 fold change” value is -0.511. As for RRIRWRPPRLPRPRPRPESEPRP, the figure is 0.916; as for RRIRRRPPRLPRPRPRPQAPPRP, 0.236.

As for RRIRFRPPRLPRPRPRPIFCPRP, the “shrunken log2 fold change” value was -0.155. In the case of RRIRVRPPRLPRPRPRPDPRPRP it was 0.395; in that of RRIRDRPPRLPRPRPRPYDDPRP, -0.00157; in that of RRIRYRPPRLPRPRPRPQAYPRP, -0.00884. RRIRARPPRLPRPRPRPLYQPRP: the “shrunken log2 fold change” value was found to be 0.141. In the case of RRIRARPPRLPRPRPRPGAFPRP it was 0.454; in that of RRIRWRPPRLPRPRPRPIFEPRP, 0.308. In the case of RRIRLRPPRLPRPRPRPLMPPRP, the “shrunken log2 fold change” value is -0.0944. In the case of RRIRFRPPRLPRPRPRPIRSPRP it was -0.0101; in that of RRIRWRPPRLPRPRPRPWIVPRP, -0.337; in that of RRIRSRPPRLPRPRPRPGAIPRP, 0.187. On to RRIRVRPPRLPRPRPRPGMNPRP, for which the “shrunken log2 fold change” value was -0.145.

Turning to RRIRNRPPRLPRPRPRPSQQPRP, the “shrunken log2 fold change” value was -0.111.

As to RRIRPRPPRLPRPRPRPETLPRP, the “shrunken log2 fold change” value is -0.0144.
